Experiment [1] deals with human voltage-gated proton channel hHv1 (human) (UniProt Q96D96). Description: whole-cell patch clamp (block of H+ current); as a1 but test pulses to +20 mV.
Another experiment has as its target hHv1-L200C (human) (UniProt Q96D96). Kind of experiment: whole-cell patch clamp (block of H+ current). A general note: In patch-clamp work, channel activity is measured electrically.
A further experiment has as its target hHv1-R205N (human) (UniProt Q96D96). Kind of experiment: whole-cell patch clamp (block of H+ current).
The target of a further experiment is hHv1-V187C (human) (UniProt Q96D96). Kind of experiment: whole-cell patch clamp (block of H+ current).
Another experiment has as its target hHv1-L203C (human) (UniProt Q96D96). Kind of experiment: whole-cell patch clamp (block of H+ current).
For another experiment, the target named is hHv1-H193C (human) (UniProt Q96D96). Kind of experiment: whole-cell patch clamp (block of H+ current).
In another experiment the target is hHv1-R211S (human) (UniProt Q96D96). Kind of experiment: whole-cell patch clamp (block of H+ current).
Another experiment concerns the target hHv1-D185C (human) (UniProt Q96D96). Description: whole-cell patch clamp (block of H+ current).
For the next experiment, the target named is hHv1-E192C (human) (UniProt Q96D96). Description: whole-cell patch clamp (block of H+ current).
The target of experiment [2] is human voltage-gated proton channel hHv1 (human) (UniProt Q96D96). Description: whole-cell patch clamp (block of H+ current).
The target in another experiment is hHv1-E196C (human) (UniProt Q96D96). Description: whole-cell patch clamp (block of H+ current).
For the next experiment, the target named is hHv1-G199C (human) (UniProt Q96D96). Description: whole-cell patch clamp (block of H+ current).
Experiment [3] addresses human voltage-gated proton channel hHv1 (human) (UniProt Q96D96).
Experiment [4] deals with human voltage-gated proton channel hHv1, Q96D96-1. Kind of experiment: whole-cell patch clamp. The settings on record: +40 mV; HEK293T cells; parent: 0.031 ± 0.003 µM.
For the next experiment, the target named is C6 peptide. Description: whole-cell patch clamp. The settings on record: +40 mV, HEK293T cells; for ratio to parent: parent: est. 1.0, read off a plot.

Values joined by “and” are separate entries in the source; they are usually repeats but may differ in a detail not shown here. Equal values may be shown once.

A word on the Ki: it is a dissociation constant, usually derived from enzyme kinetics or from competition with a known ligand. As a reminder, the koff is the first-order rate constant of dissociation. A low value points to slow dissociation. What is called kon is a measure of how fast the partners come together. As to C6 peptide (designed binder), the Ki is 4.9 nM in [1], 161 nM in the experiment with hHv1-R205N (human), 0.6 nM with hHv1-R211S (human) and 1.9 nM with hHv1-G199C (human). The off-rate (koff) in experiment [1] is 0.0043 s⁻¹; with hHv1-R205N (human), 0.19 s⁻¹; with hHv1-R211S (human) it was 0.0008 s⁻¹. Also, the kon was 400000 M⁻¹ s⁻¹ in experiment [1]; 300000 M⁻¹ s⁻¹ with hHv1-R205N (human); 500000 M⁻¹ s⁻¹ in the experiment with hHv1-R211S (human); 300000 M⁻¹ s⁻¹ and 500000 M⁻¹ s⁻¹ in [2]. In addition, the Ki mutation/Ki WT with hHv1-L200C (human), in the experiment with hHv1-V187C (human), in the experiment with hHv1-H193C (human), with hHv1-E192C (human) and in the experiment with hHv1-E196C (human) was > 43 fold throughout. The fold enhancement of C6 inhibition against WT hHv1 in the experiment with hHv1-L203C (human) and with hHv1-D185C (human) was > 4 fold each time. In experiment [3], the fraction of H+ current blocked by 250 nM C6, whole-cell patch clamp in HEK293T cells, -20 mV to +40 mV came to 90%.
On to C6 peptide R36A, for which the Ki in experiment [4] was 15000 nM.
In the case of “human voltage-gated proton channel hHv1 (from UniProt Q96D96-1) A197C”, the ratio to parent in the experiment with C6 peptide was found to be 7.6.
In the case of “human voltage-gated proton channel hHv1 (from UniProt Q96D96-1) E192A”, the Ki in the experiment with C6 peptide (parent: 0.031 ± 0.003 µM) was 18000 nM.
“human voltage-gated proton channel hHv1 (from UniProt Q96D96-1) F190C”: the ratio to parent with C6 peptide worked out at 0.62.
For the substance “human voltage-gated proton channel hHv1 (from UniProt Q96D96-1) F195C”, the ratio to parent with C6 peptide is 3.6.
Take “human voltage-gated proton channel hHv1 (from UniProt Q96D96-1) I183C”: in the experiment with C6 peptide, the ratio to parent came out at 1.1.
Same read-out and setting: with “human voltage-gated proton channel hHv1 (from UniProt Q96D96-1) I186C” the figure was 1.4; with “human voltage-gated proton channel hHv1 (from UniProt Q96D96-1) I202C”, 30.
“human voltage-gated proton channel hHv1 (from UniProt Q96D96-1) L184C”: in the experiment with C6 peptide, the ratio to parent worked out at 22.
The same measure, in the same setting: with “human voltage-gated proton channel hHv1 (from UniProt Q96D96-1) L188C” the figure was 11.
Same read-out and setting: with “human voltage-gated proton channel hHv1 (from UniProt Q96D96-1) L189A” the figure was 0.87; with “human voltage-gated proton channel hHv1 (from UniProt Q96D96-1) L198C”, 1.4; with “human voltage-gated proton channel hHv1 (from UniProt Q96D96-1) L201C”, 3.6.
The same measure, in the same setting: under “human voltage-gated proton channel hHv1 (from UniProt Q96D96-1) L203A” stands 0.28.
Regarding “human voltage-gated proton channel hHv1 (from UniProt Q96D96-1) L204C”, in the experiment with C6 peptide, the ratio to parent turned out to be 2.3.
Still for that read-out and setting: under “human voltage-gated proton channel hHv1 (from UniProt Q96D96-1) Q191C” stands 8.7.
“human voltage-gated proton channel hHv1 (from UniProt Q96D96-1) Q194C”: the ratio to parent in the experiment with C6 peptide was determined as 6.
Still for that read-out and setting: with “human voltage-gated proton channel hHv1 (from UniProt Q96D96-1) V187A” the figure was 130.

Values taken from paper PMC9191634.
